Results from PMC11869522, “Competitive displacement of lipoprotein lipase from heparan sulfate is orchestrated by a disordered acidic cluster in GPIHBP1” (Journal of Lipid Research, 2025).

B1: GPIHBP1^Cluster1-neutral: GPIHBP1 mutant with all Glu/Asp replaced by Gln/Asn at residues 1–17 (protein)
chain: QTQQQQQQQNQNHGPNNYDEEDEDEVEEEETNRLPGGGSRVLLRCYTCKSLPRDERCNLTQNCSHGQTCTTLIAHGNTESGLLTTHSTWCTDSCQPITKTVEGTQVTMTCCQSSLCNVPPWQSSRVQDPTG
modifications: Tyr18 sulfation present in less than 40%; one bi-antennary N-linked glycosylation; left off: uPAR domain III, N-terminal, cleaved
B2: GPIHBP1^Cluster2-neutral: GPIHBP1 mutant with all Glu/Asp replaced by Gln/Asn at residues 19–30 (protein)
chain: QTQQEEEEEDEDHGPDDYNQQNQNQVQQQQTNRLPGGGSRVLLRCYTCKSLPRDERCNLTQNCSHGQTCTTLIAHGNTESGLLTTHSTWCTDSCQPITKTVEGTQVTMTCCQSSLCNVPPWQSSRVQDPTG
modifications: Tyr18 sulfation absent; one bi-antennary N-linked glycosylation; left off: uPAR domain III, N-terminal, cleaved

Tests used:
bLPL [1] = experiment: Protein stability by differential scanning fluorimetry (nano-DSF, turbidity); design: species or system bovine; conditions: 10 μM bLPL with 15 μM GPIHBP1 variant; 10 mM HEPES, 150 mM NaCl pH 7.4; 1°C/min, 15−95°C; back-reflection turbidity; triplicates
Description: The thermostability of bLPL in the presence or absence of GPIHBP1 was measured by differential scanning fluorometry (nano-DSF) with a Prometheus Panta (Nanotemper Technologies) using a previously published method ([22]). In brief; 10 μM bLPL alone or in the presence of 15 μM GPIHBP1^1–131, 15 μM GPIHBP1^Cluster1-neutral, or 15 μM GPIHBP1^Cluster2-neutra1 were prepared in 10 mM HEPES, 150 mM NaCl (pH 7.4) and heated in capillaries with a ramping temperature of 1°C/min from 15−95°C. Turbidity was measured by assessing back-reflection and was used as a surrogate marker for thermal unfolding ([20]). All samples were measured in triplicates.
Next, we probed if recombinant GPIHBP1^1–131 with defined neutralizations of charge-clusters 1 or 2 had distinct impacts on their ability to protect bLPL from ANGPTL4-mediated inactivation. […]
Fig. 4 GPIHBP1 clusters 1 and 2 have distinct impacts on LPL stability and inactivation by ANGPTL4. […] LPL activity was measured by the release of free fatty acids from Intralipid using the NEFA 2 assay. […] B: Thermostability of 10 μM bLPL in the presence of 15 μM of the different GPIHBP1 charge variants using Tturbidity measured by Prometheus Panta™ as a surrogate marker for unfolding ([20]).

bLPL [2] = experiment: Lipase activity assay, protection against ANGPTL4-catalyzed LPL inactivation; assay type: biochemical, bovine; conditions: 30 nM bLPL, 30 nM ANGPTL4, 300 nM GPIHBP1 variant, room temperature up to 60 min; Intralipid, NEFA; triplicates

| Molecule | Tturbidity (thermal unfolding and aggregation of bLPL) (bLPL [1]) [°C] | protection of bLPL from ANGPTL4-mediated inactivation (time-dependent decay of LPL activity) (bLPL [2]) |
| --- | --- | --- |
| B1 | 50.4 ± 0.2 | greater efficacy than GPIHBP1^Cluster2-neutral |
| B2 | 48.8 ± 0.1 | – |
